Test results as given in publication PMC4361775.

Experiments:
[1] = target: type II human collagen (human); assay: SPR
[2] = target: coch_vWFA2_F527C protein, monomeric form (recombinant vWFA2 domain of human cochlin carrying the p.F527C mutation) (human); assay: non-reducing SDS-PAGE
[3] = target: type II collagen (UniProt P02458); assay: SPR; settings: cited from earlier work
type II collagen, sequence (P02458 182-1241): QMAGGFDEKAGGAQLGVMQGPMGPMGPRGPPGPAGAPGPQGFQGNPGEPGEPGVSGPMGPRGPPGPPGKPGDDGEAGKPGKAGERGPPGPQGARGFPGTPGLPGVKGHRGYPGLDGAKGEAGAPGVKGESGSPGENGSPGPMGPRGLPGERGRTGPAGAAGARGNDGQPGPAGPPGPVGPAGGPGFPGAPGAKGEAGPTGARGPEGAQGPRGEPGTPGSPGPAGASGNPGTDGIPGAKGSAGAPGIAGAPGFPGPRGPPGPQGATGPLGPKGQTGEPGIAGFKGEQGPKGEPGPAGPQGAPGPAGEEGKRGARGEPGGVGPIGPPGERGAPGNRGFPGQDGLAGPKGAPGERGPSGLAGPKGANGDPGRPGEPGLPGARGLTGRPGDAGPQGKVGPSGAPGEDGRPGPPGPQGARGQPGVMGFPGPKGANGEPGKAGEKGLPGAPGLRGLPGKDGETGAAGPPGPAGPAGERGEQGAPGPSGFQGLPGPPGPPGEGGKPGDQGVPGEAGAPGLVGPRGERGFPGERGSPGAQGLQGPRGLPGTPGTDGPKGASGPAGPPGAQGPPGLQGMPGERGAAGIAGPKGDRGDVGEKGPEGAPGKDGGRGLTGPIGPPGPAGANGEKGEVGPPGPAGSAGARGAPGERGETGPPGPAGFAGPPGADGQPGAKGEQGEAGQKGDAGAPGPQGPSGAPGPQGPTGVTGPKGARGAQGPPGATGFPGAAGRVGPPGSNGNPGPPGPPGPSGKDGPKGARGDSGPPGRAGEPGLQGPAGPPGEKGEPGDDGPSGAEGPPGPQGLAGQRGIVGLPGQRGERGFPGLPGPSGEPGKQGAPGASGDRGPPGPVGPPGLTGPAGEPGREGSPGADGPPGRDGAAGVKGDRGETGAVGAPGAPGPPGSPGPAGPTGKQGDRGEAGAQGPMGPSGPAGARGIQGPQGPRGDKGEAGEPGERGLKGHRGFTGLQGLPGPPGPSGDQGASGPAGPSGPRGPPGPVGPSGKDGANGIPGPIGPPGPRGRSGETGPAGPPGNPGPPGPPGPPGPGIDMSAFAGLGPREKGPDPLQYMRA

coch_vWFA2_F527C protein, dimeric form (covalent disulfide-bonded dimer) (domain or fragment)
Kd of the higher-affinity species (heterogeneous analyte, two species 1:1) [1]: 0.95 µM

coch_vWFA2_F527C protein, monomeric form (recombinant vWFA2 domain of human cochlin carrying the p.F527C mutation) (domain or fragment)
stoichiometry N [2]: 2

cochlin vWFA2 (from UniProt O43405)
Kd [3]: 0.0945 µM
